Results as given in patent EP1914304A1.

Test system: Nc1nc2c(ncn2[C@@H]2O[C@H](COP(=O)(O)O)[C@@H](O)[C@H]2O)c(=O)[nH]1
Test: Michaelis-Menten kinetics of guanylate kinase activity
Type: biochemical, murine
Conditions: other: Table X
Excerpt: . […] Table X Kinetic Analysis of Fusion Proteins

Sequence of murine guanylate kinase (gmk), wild-type (Mus musculus) (chain, as listed by the source): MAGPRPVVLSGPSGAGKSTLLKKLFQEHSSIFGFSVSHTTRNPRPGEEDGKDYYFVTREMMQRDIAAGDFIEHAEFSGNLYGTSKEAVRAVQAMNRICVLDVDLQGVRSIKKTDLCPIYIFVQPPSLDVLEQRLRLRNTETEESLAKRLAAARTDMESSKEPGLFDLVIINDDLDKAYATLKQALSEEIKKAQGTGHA

For “murine guanylate kinase (gmk), wild-type (Mus musculus)”, the Km was 25 µM.
